According to patent US20230074436A1 (DENALI THERAPEUTICS, published 2023):
No end group written: not given here. *: point of attachment. Biotin = O=C1N[C@H]2[C@H](CS[C@H]2CCCCC(=O)*)N1

Columns and labels:
[1] = target: T1, alpha-synuclein peptide 95-140 (human); assay: peptide ELISA, coated fragment
T1 construct: synthetic peptide coated on plate

[2] = target: T2, alpha-synuclein peptide 61-140 (human); assay: peptide ELISA, coated fragment
T2 construct: synthetic peptide coated on plate

asyn_113-127 [3] = target: T3, asyn_113-127 (human); assay: Ala-scan peptide ELISA, row A, run 2
T3 construct: also called pep1
T3 peptide: Biotin-LEDMPVDPDNEAYEM

asyn_113-127_113A = target: T4, asyn_113-127_113A (human); assay: Ala-scan peptide ELISA, row A, run 2
T4 construct: substitution is already in the entry; also called pep2
T4 peptide: Biotin-AEDMPVDPDNEAYEM

asyn_113-127_114A [4] = target: T5, asyn_113-127_114A (human); assay: Ala-scan peptide ELISA, row A, run 2
T5 construct: substitution is already in the entry; also called pep3
T5 peptide: Biotin-LADMPVDPDNEAYEM

asyn_113-127_115A [5] = target: T6, asyn_113-127_115A (human); assay: Ala-scan peptide ELISA, row A, run 2
T6 construct: substitution is already in the entry; also called pep4
T6 peptide: Biotin-LEAMPVDPDNEAYEM

asyn_113-127_116A [6] = target: T7, asyn_113-127_116A (human); assay: Ala-scan peptide ELISA, row A, run 2
T7 construct: substitution is already in the entry; also called pep5
T7 peptide: Biotin-LEDAPVDPDNEAYEM

asyn_113-127_117A [7] = target: T8, asyn_113-127_117A (human); assay: Ala-scan peptide ELISA, row A, run 2
T8 construct: substitution is already in the entry; also called pep6
T8 peptide: Biotin-LEDMAVDPDNEAYEM

asyn_113-127_118A = target: T9, asyn_113-127_118A (human); assay: Ala-scan peptide ELISA, row A, run 2
T9 construct: substitution is already in the entry; also called pep7
T9 peptide: Biotin-LEDMPADPDNEAYEM

asyn_113-127_119A = target: T10, asyn_113-127_119A (human); assay: Ala-scan peptide ELISA, row A, run 2
T10 construct: substitution is already in the entry; also called pep8
T10 peptide: Biotin-LEDMPVAPDNEAYEM

asyn_113-127_120A [8] = target: T11, asyn_113-127_120A (human); assay: Ala-scan peptide ELISA, row A, run 2
T11 construct: substitution is already in the entry; also called pep9
T11 peptide: Biotin-LEDMPVDADNEAYEM

asyn_113-127_121A [9] = target: T12, asyn_113-127_121A (human); assay: Ala-scan peptide ELISA, row A, run 2
T12 construct: substitution is already in the entry; also called pep10
T12 peptide: Biotin-LEDMPVDPANEAYEM

asyn_113-127_122A [10] = target: T13, asyn_113-127_122A (human); assay: Ala-scan peptide ELISA, row A, run 2
T13 construct: substitution is already in the entry; also called pep11
T13 peptide: Biotin-LEDMPVDPDAEAYEM

asyn_113-127_123A [11] = target: T14, asyn_113-127_123A (human); assay: Ala-scan peptide ELISA, row A, run 2
T14 construct: substitution is already in the entry; also called pep12
T14 peptide: Biotin-LEDMPVDPDNAAYEM

asyn_113-127_124G [12] = target: T15, asyn_113-127_124G (human); assay: Ala-scan peptide ELISA, row A, run 2
T15 construct: substitution is already in the entry; also called pep13
T15 peptide: Biotin-LEDMPVDPDNEGYEM

asyn_113-127_124P [13] = target: T16, asyn_113-127_124P (human); assay: Ala-scan peptide ELISA, row A, run 2
T16 construct: substitution is already in the entry; also called pep14
T16 peptide: Biotin-LEDMPVDPDNEPYEM

asyn_113-127_125A = target: T17, asyn_113-127_125A (human); assay: Ala-scan peptide ELISA, row A, run 2
T17 construct: substitution is already in the entry; also called pep15
T17 peptide: Biotin-LEDMPVDPDNEAAEM

asyn_113-127_126A = target: T18, asyn_113-127_126A (human); assay: Ala-scan peptide ELISA, row A, run 2
T18 construct: substitution is already in the entry; also called pep16
T18 peptide: Biotin-LEDMPVDPDNEAYAM

asyn_113-127_127A [14] = target: T19, asyn_113-127_127A (human); assay: Ala-scan peptide ELISA, row A, run 2
T19 construct: substitution is already in the entry; also called pep17
T19 peptide: Biotin-LEDMPVDPDNEAYEA

[15] = target: T20, biotinylated human alpha-synuclein (human, UniProt P37840 1-140); assay: Ala-scan peptide ELISA, row A, run 2
asyn_113-127 [16] = target: T3, asyn_113-127; assay: Ala-scan peptide ELISA, row B, run 2
asyn_113-127_114A [17] = target: T5, asyn_113-127_114A; assay: Ala-scan peptide ELISA, row B, run 2
asyn_113-127_115A [18] = target: T6, asyn_113-127_115A; assay: Ala-scan peptide ELISA, row B, run 2
asyn_113-127_116A [19] = target: T7, asyn_113-127_116A; assay: Ala-scan peptide ELISA, row B, run 2
asyn_113-127_117A [20] = target: T8, asyn_113-127_117A; assay: Ala-scan peptide ELISA, row B, run 2
asyn_113-127_120A [21] = target: T11, asyn_113-127_120A; assay: Ala-scan peptide ELISA, row B, run 2
asyn_113-127_121A [22] = target: T12, asyn_113-127_121A; assay: Ala-scan peptide ELISA, row B, run 2
asyn_113-127_122A [23] = target: T13, asyn_113-127_122A; assay: Ala-scan peptide ELISA, row B, run 2
asyn_113-127_123A [24] = target: T14, asyn_113-127_123A; assay: Ala-scan peptide ELISA, row B, run 2
asyn_113-127_124G [25] = target: T15, asyn_113-127_124G; assay: Ala-scan peptide ELISA, row B, run 2
asyn_113-127_124P [26] = target: T16, asyn_113-127_124P; assay: Ala-scan peptide ELISA, row B, run 2
asyn_113-127_127A [27] = target: T19, asyn_113-127_127A; assay: Ala-scan peptide ELISA, row B, run 2
[28] = target: T20, biotinylated human alpha-synuclein; assay: Ala-scan peptide ELISA, row B, run 2
[29] = target: alpha-synuclein phosphorylated at serine 129 (human, UniProt P37840 1-140); assay: SPR (Biacore), antibody captured, p129-Syn injected
mouse alpha-synuclein = mouse alpha-synuclein (mouse, UniProt O55042 1-140); assay: direct ELISA on coated antigen; Table 6 titration ELISA, mouse aSyn; Bmax 0.1 (weak binding)

antibody concentration at which ELISA is positive [1]: < 40 ng/mL
antibody concentration at which ELISA is positive [2]: < 40 ng/mL
A450 (asyn_113-127 [3]): 0.374 OD
A450 (asyn_113-127_113A): 0.44 OD
A450 (asyn_113-127_114A [4]): 0.401 OD
A450 (asyn_113-127_115A [5]): 0.405 OD
A450 (asyn_113-127_116A [6]): 0.418 OD
A450 (asyn_113-127_117A [7]): 0.462 OD
A450 (asyn_113-127_118A): 0.441 OD
A450 (asyn_113-127_119A): 0.06 OD
A450 (asyn_113-127_120A [8]): 0.314 OD
A450 (asyn_113-127_121A [9]): 0.391 OD
A450 (asyn_113-127_122A [10]): 0.08 OD
A450 (asyn_113-127_123A [11]): 0.441 OD
A450 (asyn_113-127_124G [12]): 0.396 OD
A450 (asyn_113-127_124P [13]): 0.069 OD
A450 (asyn_113-127_125A): 0.078 OD
A450 (asyn_113-127_126A): 0.469 OD
A450 (asyn_113-127_127A [14]): 0.504 OD
A450 [15]: 0.907 OD
A450 (asyn_113-127 [16]): 0.394 OD
A450 (asyn_113-127_114A [17]): 0.387 OD
A450 (asyn_113-127_115A [18]): 0.387 OD
A450 (asyn_113-127_116A [19]): 0.433 OD
A450 (asyn_113-127_117A [20]): 0.459 OD
A450 (asyn_113-127_120A [21]): 0.24 OD
A450 (asyn_113-127_121A [22]): 0.317 OD
A450 (asyn_113-127_122A [23]): 0.06 OD
A450 (asyn_113-127_123A [24]): 0.378 OD
A450 (asyn_113-127_124G [25]): 0.326 OD
A450 (asyn_113-127_124P [26]): 0.058 OD
A450 (asyn_113-127_127A [27]): 0.429 OD
A450 [28]: 0.931 OD
Kd [29]: 6.14 nM
EC50 (mouse alpha-synuclein): 4.3 nM
B1: 20H4 (antibody, rat IgG2b, V domains shown)
VH: AVQLVESGGGLVQPKESLKISCAASGFTFSNAAMYWVRQAPGKGLELLARIRTKPNNYATYHADSVKGRFTISRDDSQSMVYLHMGNLKTEDTAMYYCTADMATGDYWGPGVMVTVSS
VL: DIQMTQSPPVLSVSVGDRVTLSCKASQNINKNLDWYQQKHGEAPKPLIYSTNNLQTGVPSRFSGSGSGTDYTLTISSLQPEDVATYYCYQYKSAWTFGGGTKLELR
notes: also called clone 20H4; rat 20H4
